The results in this text go back to publication PMC5548808, “Structural and functional insights into the lipopolysaccharide ABC transporter LptB2FG” (Nature Communications, 2017).

Numbering of substitutions follows the chain as printed.

The chains are these.
T1: LptF of E. coli (in purified wild-type LptB2CFG) (E. coli, UniProt P0AF98 1-366)
T1 construct: LptF, E. coli, transmembrane subunit of the LptB2CFG complex
T1 sequence (looked up): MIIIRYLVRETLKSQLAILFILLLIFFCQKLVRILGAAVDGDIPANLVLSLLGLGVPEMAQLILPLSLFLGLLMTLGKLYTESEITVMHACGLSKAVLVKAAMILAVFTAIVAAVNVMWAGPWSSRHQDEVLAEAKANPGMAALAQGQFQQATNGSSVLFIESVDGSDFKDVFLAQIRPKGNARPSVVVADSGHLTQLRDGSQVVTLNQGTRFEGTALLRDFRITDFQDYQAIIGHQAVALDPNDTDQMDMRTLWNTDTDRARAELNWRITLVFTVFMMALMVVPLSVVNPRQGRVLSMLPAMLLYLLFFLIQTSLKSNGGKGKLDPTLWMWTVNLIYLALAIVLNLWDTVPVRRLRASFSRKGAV

T2: LptG of E. coli (in purified wild-type LptB2CFG) (E. coli, UniProt P0ADC6 1-360)
T2 construct: LptG, E. coli, transmembrane subunit of the LptB2CFG complex
T2 sequence (looked up): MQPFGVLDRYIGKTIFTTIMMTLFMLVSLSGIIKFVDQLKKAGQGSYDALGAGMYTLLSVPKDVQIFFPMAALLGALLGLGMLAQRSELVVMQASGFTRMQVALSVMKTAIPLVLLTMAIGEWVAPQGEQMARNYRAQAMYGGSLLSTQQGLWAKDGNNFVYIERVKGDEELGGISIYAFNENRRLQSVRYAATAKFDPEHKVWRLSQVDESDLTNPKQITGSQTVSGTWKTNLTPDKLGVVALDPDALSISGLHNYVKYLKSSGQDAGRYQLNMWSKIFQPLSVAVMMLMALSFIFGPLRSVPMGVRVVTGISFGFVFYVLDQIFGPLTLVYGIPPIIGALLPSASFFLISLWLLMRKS

T3: LptF F26D/L62D of E. coli (in purified mutant LptB2CFG) (E. coli, UniProt P0AF98 1-366, F26D | L62D)
T3 construct: LptF, E. coli, double mutant F26D/L62D
T3 sequence (looked up): T1 sequence (looked up) with F26D, L62D

T4: LptG K34E/R136E of E. coli (in purified mutant LptB2CFG) (E. coli, UniProt P0ADC6 1-360, K34E | R136E)
T4 construct: LptG, E. coli, double mutant K34E/R136E
T4 sequence (looked up): T2 sequence (looked up) with K34E, R136E

B1: LptC of E. coli (in purified LptB2CFG) (natural protein, UniProt P0ADV9 1-191, looked up)
chain: MSKARRWVIIVLSLAVLVMIGINMAEKDDTAQVVVNNNDPTYKSEHTDTLVYNPEGALSYRLIAQHVEYYSDQAVSWFTQPVLTTFDKDKIPTWSVKADKAKLTNDRMLYLYGHVEVNALVPDSQLRRITTDNAQINLVTQDVTSEDLVTLYGTTFNSSGLKMRGNLRSKNAELIEKVRTSYEIQNKQTQP
notes: LptC, E. coli, inner membrane protein of the LptB2CFG complex; The construct of LptC is not described
B2: LptB of E. coli (in purified LptB2CFG) (natural protein, UniProt P0A9V1 1-241, looked up)
chain: MATLTAKNLAKAYKGRRVVEDVSLTVNSGEIVGLLGPNGAGKTTTFYMVVGIVPRDAGNIIIDDDDISLLPLHARARRGIGYLPQEASIFRRLSVYDNLMAVLQIRDDLSAEQREDRANELMEEFHIEHLRDSMGQSLSGGERRRVEIARALAANPKFILLDEPFAGVDPISVIDIKRIIEHLRDSGLGVLITDHNVRETLAVCERAYIVSQGHLIAHGTPTEILQDEHVKRVYLGEDFRL
notes: in the K. pneumoniae construct and in the E. coli pTRC99a-Kan LptBFG plasmid it is an 8xHis at the C terminus of LptB

Common to all, as to assay: SEC; co-expressed E. coli LptB2CFG complexes (wild type and mutants) purified as the K. pneumoniae complex; HiLoad 16/600 Superdex 200 pg, 20 mM Tris-Cl pH 7.8, 150 mM NaCl, 5% glycerol, 0.05% DDM
Details in all cases: both partners purified
On the technique in general: SEC sorts molecules by how far they enter the pores of the column.

Test [1] deals with B2.
Test [2] has as its target T1, LptF of E. coli (in purified wild-type …).
In test [3] the target is T2, LptG of E. coli (in purified wild-type …).
Test [4] addresses T3, LptF F26D/L62D of E. coli (in purified …).
The target of test [5] is T4, LptG K34E/R136E of E. coli (in purified …).

As to B1, the binding result in test [1] was “binds”.

With B2, the binding result in test [2], in test [3], in test [4] and in test [5] was “binds” in each case.
